Laboratory results: article PMC7448383

Legend:
Assay in all cases: EMSA
G3BP1 dRBD = G3BP1 dRBD (human, UniProt Q13283 1-334, del335-466)
G3BP1 dIDR3 (dRGG) = G3BP1 dIDR3 (dRGG) (human, UniProt Q13283 1-410, del411-466)
G3BP1 WT = G3BP1 WT (human, UniProt Q13283 1-466)
G3BP1 S149A = G3BP1 S149A (human, UniProt Q13283 1-466, S149A)
G3BP1 S149A, sequence (Q13283 whole entry S149A): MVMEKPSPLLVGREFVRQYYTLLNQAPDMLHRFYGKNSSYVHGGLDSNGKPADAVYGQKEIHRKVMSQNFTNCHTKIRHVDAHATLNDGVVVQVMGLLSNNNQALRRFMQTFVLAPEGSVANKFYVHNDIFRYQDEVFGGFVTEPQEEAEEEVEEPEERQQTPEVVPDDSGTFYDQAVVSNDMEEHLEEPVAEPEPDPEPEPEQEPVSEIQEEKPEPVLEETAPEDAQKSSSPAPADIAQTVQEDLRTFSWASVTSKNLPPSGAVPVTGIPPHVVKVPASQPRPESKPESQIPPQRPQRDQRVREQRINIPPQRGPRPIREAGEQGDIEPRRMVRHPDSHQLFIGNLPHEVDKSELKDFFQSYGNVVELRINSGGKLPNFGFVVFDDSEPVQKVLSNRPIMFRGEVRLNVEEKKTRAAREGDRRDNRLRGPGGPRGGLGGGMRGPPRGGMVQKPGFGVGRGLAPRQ

G3BP1 dRBD, sequence (Q13283 1-334, stated change not applied): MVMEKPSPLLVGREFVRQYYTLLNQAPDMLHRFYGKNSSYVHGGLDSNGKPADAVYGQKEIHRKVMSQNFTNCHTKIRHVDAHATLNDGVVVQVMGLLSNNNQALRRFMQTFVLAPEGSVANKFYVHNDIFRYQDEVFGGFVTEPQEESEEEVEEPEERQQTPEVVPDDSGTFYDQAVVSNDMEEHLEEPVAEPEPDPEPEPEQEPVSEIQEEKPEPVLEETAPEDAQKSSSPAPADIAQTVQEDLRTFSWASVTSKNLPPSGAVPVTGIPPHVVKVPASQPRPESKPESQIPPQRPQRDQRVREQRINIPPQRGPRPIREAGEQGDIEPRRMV
G3BP1 dIDR3 (dRGG), sequence (Q13283 1-410, stated change not applied): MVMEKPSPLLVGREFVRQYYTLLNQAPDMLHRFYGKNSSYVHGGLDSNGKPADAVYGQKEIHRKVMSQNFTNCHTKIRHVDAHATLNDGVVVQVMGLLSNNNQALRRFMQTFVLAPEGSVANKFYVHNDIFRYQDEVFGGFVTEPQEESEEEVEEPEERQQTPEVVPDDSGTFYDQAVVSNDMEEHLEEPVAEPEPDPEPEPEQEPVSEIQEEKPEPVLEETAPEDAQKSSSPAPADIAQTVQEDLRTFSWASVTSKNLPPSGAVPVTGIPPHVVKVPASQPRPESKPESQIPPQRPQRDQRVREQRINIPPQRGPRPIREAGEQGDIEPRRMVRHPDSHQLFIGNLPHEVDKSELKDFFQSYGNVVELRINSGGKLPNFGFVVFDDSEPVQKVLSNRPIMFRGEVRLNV
G3BP1 WT, sequence (Q13283 whole entry): as the sequence (Q13283 whole entry S149A) above, with A149S counted along it

| Binder | binding result (G3BP1 dRBD) | binding result (G3BP1 dIDR3 (dRGG)) | binding result (G3BP1 WT) | binding result (G3BP1 S149A) |
| --- | --- | --- | --- | --- |
| 100-base RNA (ssRNA) RNA: AGCCUGAAUCUCAGAUUCCACCACAAAGACCUCAGCGGGAUCAAAGAGUGCGAGAACAACGAAUAAAUAUUCCUCCCCAAAGGGGACCCAGACCAAUCCG | no binding | no binding | – | – |
| AGAUUCCACCACAAAGACCC (ssRNA) [20-base RNA] | – | – | binds | binds |
